Experimental findings from patent publication US20190185531A1 (MIT, published 2019) are described below.

In assay [1] the target is T1, human Bfl-1 (c-myc-tagged) (human, UniProt Q16548 1-151, limits assumed).
T1 construct: c-myc-tagged in the fluorescence polarization and yeast-display assays; also called c-myc-Bfl-1; Myc-tagged Bfl-1; not shown: c-myc tag
T1 sequence (looked up): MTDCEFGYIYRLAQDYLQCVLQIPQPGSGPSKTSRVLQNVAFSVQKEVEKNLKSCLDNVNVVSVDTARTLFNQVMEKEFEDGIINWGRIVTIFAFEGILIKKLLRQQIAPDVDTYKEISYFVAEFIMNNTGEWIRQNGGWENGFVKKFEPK
Kind of assay: competition fluorescence anisotropy against fluoresceinated Bim BH3. The method, then:
(§1) Fluorescence polarization assays were performed in order to measure the binding abilities of the peptide constructs. […] C-myc-tagged receptors were used for all Bcl-2 homologs. Plates were mixed at room temperature for 3 h. Experiments were done in triplicate. Data were fit, as described for competition fluorescence anisotropy experiments in Foight et al. (Foight, G. W., Ryan, J. A., Gullá, S. V, Letai, A. & Keating, A. E. Designed BH3 Peptides with High Affinity and Specificity for Targeting Mcl-1 in Cells. ACS Chem. Biol. 9, 1962-8 (2014)), to a complete competitive binding model (equation 17 in Roehrl et al., 2004)(Roehrl, M. H. A., Wang, J. Y. & Wagner, G. A General Framework for Development and Data Analysis of Competitive High-Throughput Screens for Small-Molecule Inhibitors of Protein-Protein Interactions by Fluorescence Polarization^{†}. Biochemistry 43, 16056-16066 (2004)) using a Python script.
Background: In fluorescence polarisation assays a small probe gives low polarisation when free and higher when bound to something large.

Assay [2] concerns the target T1, human Bfl-1 (c-myc-tagged). Kind of assay: X-ray crystal structure.
Description: To analyze the structural interactions between the peptides and Bfl-1, crystals of various complexes were grown and diffraction data collected. […] Crystals were seeded with drops containing parent crystals grown in higher ammonium sulfate (2.2-2.4 M) using a cat whisker. The protein was concentrated to 4 mg/ml in 20 mM Tris, 150 mM NaCl, 1% glycerol, 1 mM DTT, pH 8.0 and mixed with peptide at a 1:1 molar ratio. The hanging drops contained 1.5 μl of complex mixed with 1.5 μl of reservoir solution. Crystals were cryo-protected by transferring into 2.0 M lithium sulfate with 10% glycerol prior to flash freezing. Diffraction data were collected at the Advanced Photon Source at the Argonne National Laboratory, NE-CAT beamline 24ID-C. […] The peptide was built into the difference density from the rigid body refinement and the structure was refined with iterative rounds of refinement and model building using PHENIX and COOT.
In assay [3] the target is T1, human Bfl-1 (c-myc-tagged). Kind of assay: fluorescence anisotropy competition (FIG. 1E). On the procedure:
as §1

The target in assay [4] is T2, human Mcl-1 (c-myc-tagged) (human, UniProt Q07820 172-327).
T2 construct: c-myc-tagged in the fluorescence polarization assay; also called c-myc-Mcl-1; not shown: c-myc tag
T2 sequence (Q07820 172-327 limits assumed): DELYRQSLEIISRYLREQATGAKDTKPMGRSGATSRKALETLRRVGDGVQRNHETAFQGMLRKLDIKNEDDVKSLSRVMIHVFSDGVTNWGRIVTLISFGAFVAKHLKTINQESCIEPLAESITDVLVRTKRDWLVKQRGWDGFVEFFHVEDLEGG
Kind of assay: assay not named in the sentence (competition fluorescence anisotropy elsewhere).

On to Ac-QWVREIAAGLRLAADNVNAQLER-NH2 [FS1], for which, in assay [1], affinity was put at a Ki of 0.015 µM. Turning to Ac-QWAREIGAQLRRMADDLNAQYER-NH2 (peptide, UniProt Q9BXH1 132-154, looked up, domain: BH3) [Puma BH3 peptide (23 residues)], in assay [2], the binding result is “binds”. Consider Ac-QWVREIAAQLRRMADDLNAQYER-NH2 (also called PUMA/FS2 chimeric peptides) [PUMA/FS2 chimeric peptide: PUMA with larger residues at positions A2 and E2], for which, in assay [3], the “fold increase in affinity against PUMA” value was 2.3 fold. Regarding Ac-QWVREIAAGLRRAADDVNAQVER-NH2 [FS2], in assay [3], the “fold increase in affinity against the chimera with smaller residues at G2, D3, A4 and E4” value was 28.6 fold. The “fold weaker than binding to Bfl-1” value in assay [4] was above 100 fold. Turning to Ac-QWAREIGAGLRRAADDVNAQVER-NH2 (also called PUMA/FS2 chimeric peptides) [PUMA/FS2 chimeric peptide: PUMA with smaller residues at positions G2, D3, A4 and E4], in assay [3], the binding result is “binds”.
